Experimental data: PMC10998906 (NPJ Vaccines, 2024)

Molecular target: H5 GCN4 (IN05 HA, GCN4-trimerized) (Influenza A virus …, UniProt A5A5L7, stabilised)
Assay: negative-stain EM
Settings: both partners purified

B1: CR9114 Fab (Fab, V domains shown)
VH: QVQLVQSGAEVKKPGSSVKVSCKSSGGTSNNYAISWVRQAPGQGLDWMGGISPIFGSTAYAQKFQGRVTISADIFSNTAYMELNSLTSEDTAVYFCARHGNYYYYSGMDVWGQGTTVTVSS
VL: QSALTQPPAVSGTPGQRVTISCSGSDSNIGRRSVNWYQQFPGTAPKLLIYSNDQRPSVVPDRFSGSKSGTSASLAISGLQSEDEAEYYCAAWDDSLKGAVFGGGTQLTVL
  stoichiometry N: 3 Fabs per trimer
